Measurements: paper PMC8213806

Tests used:
[1] = molecular target: TcdB2 (R20292 strain), recombinant full-length, from Bacillus megaterium (Clostridioides difficile (R20292 strain as printed))
[2] = molecular target: Repeat1-Fc (CSPG4 Repeat1, residues 410–551, fused to the N-terminus of human IgG1 Fc) (human) (UniProt Q6UVK1); assay: BLI; Repeat1-Fc (50 nM) immobilised on Anti-hIgG-Fc biosensors, TcdB1 or TcdB2 in solution; 20 mM HEPES, 400 mM NaCl, pH 7.5, 10 mM CaCl2, 0.1% Tween-20, 0.5% BSA; 1:1 binding model
Sequence of Repeat1-Fc (CSPG4 Repeat1, residues 410–551, fused to the N-terminus of human IgG1 Fc) (human) (Q6UVK1 410-551): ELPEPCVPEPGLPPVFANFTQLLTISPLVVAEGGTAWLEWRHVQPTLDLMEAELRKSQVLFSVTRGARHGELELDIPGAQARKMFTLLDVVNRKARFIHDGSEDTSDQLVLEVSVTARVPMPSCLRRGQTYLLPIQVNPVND

Sequence of Repeat1-Fc (CSPG4 Repeat1, residues 410–551, fused to the N-terminus of human IgG1 Fc) (Q6UVK1 410-551): as above

Substance: Repeat1-Fc (CSPG4 Repeat1, residues 410–551, fused to the N-terminus of human IgG1 Fc) (from UniProt Q6UVK1 410-551) (Fc fusion)
- neutralisation in the cell-rounding assay on HeLa cells, 24 h, Repeat1-Fc at 2 µM; cells kept from rounding [1]: 40%

Substance: TcdB2 (R20292 strain), recombinant full-length, from Bacillus megaterium (natural protein)
- Kd [2]: 5.4 nM
- koff [2]: 4.63e-05 s⁻¹
- kon [2]: 8340 M⁻¹ s⁻¹
